{"source": "paper doi:10.1101/2025.03.26.645513v1", "proteins": {"B1": {"name": "SaCysK (Staphylococcus aureus subsp. aureus N315) (protein)", "chain": "MAQKPVDNITQIIGGTPVVKLRNVVDDNAADVYVKLEYQNPGGSVKDRIALAMIEKAEREGKIKPGDTIVEPTSGNTGIGLAFVCAAKGYKAVFTMPETMSQERRNLLKAYGAELVLTPGSEAMKGAIKKAKELKEEHGYFEPQQFENPANPEVHELTTGPELLQQFEGKTIDAFLAGVGTGGTLSGVGKVLKKEYPNIEIVAIEPEASPVLSGGEPGPHKLQGLGAGFIPGTLNTEIYDSIIKVGNDTAMEMSRRVAKEEGILAGISSGAAIYAAIQKAKELGKGKTVVTVLPSNGERYLSTPLYSFDD"}}, "substrate": "CC(=O)OC[C@H](N)C(=O)O", "assay": "purified protein", "settings": "15 mM Na2S, MOPS, 37 °C, no glycerol", "data": [{"protein": "B1", "values": [{"measurement": "Km", "result": "1378 ± 592", "unit": "µM"}]}]}
